Literature values as cited in PMC2892843.

Biological target: NgR1 (UniProt Q9BZR6)
Chain of UniProt Q9BZR6 (Q9BZR6 27-447): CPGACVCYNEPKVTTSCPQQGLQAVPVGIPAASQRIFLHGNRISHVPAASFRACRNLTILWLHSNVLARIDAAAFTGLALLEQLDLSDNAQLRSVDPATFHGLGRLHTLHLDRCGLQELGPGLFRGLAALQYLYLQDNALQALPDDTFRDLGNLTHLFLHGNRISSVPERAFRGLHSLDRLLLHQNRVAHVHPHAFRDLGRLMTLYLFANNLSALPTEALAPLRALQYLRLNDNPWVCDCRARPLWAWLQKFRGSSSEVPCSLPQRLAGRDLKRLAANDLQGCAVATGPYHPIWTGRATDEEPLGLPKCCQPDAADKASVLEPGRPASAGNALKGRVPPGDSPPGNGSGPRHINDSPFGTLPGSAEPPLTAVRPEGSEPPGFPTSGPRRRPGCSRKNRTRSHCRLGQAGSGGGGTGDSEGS

Kd: 10 nM
Substance: MAG (from UniProt P20916)
